From a protein production outcome set (Wang et al. 2014)

Assay: label from the status in PepcDB records
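Also: failed if final PepcDB status was selected cloned or expressed and not failed if soluble or beyond.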

## MTYKVLHVGAGGFGERWCDTFLPSNNSDGTIEVVGLVDIDARALEIGRKHLGLKAKQCFTSAAQAFKAVDADFCTIVIPPALHEGIVDLALERGMHILSEKPIAATMEASVRIADKVRVAGRKMAVTMSHRFDQDKSTLRALVSDEALGRVNTVSCRFAGDYRAYDSWGRFRHEMIHPMLIEGAVHHLDIMADLAGAPCTSIYARSWKPEWAEYKGETDVMVLMDFANGAHGVYEGSSAQATGLNDWTFEYVRVEAASGTAILDHREVEVFHRDPKRIYQKNRHGKGQQVSLLGGKKWKNSLLIEQFCHWLDGGPPMATNVEDNLQSVALIFSAIESARLGQPVKVQEFLQSFRKSASIETQ
  protein production: failed

## MAEFLHRFAQGFAALNKDNLDQVAELYSEDVSFSDPMHDIHGLAAMQRYFAELYANVRDLHFDFHAFDEVRPGEGYLVWTMSYSHPRLAGGRTIRVEGCSHLKWRDKVYRHRDYFDAGALLYEHLP
  protein production: failed

## MSIRLKTALLSGILLAILVSGLGGVLWTVVRPGFQDIERARAADHMTALLAAISADIDSIGTFILSYSSWDETYAFVRTGDPTYVANNLAVEGAKNAQSHFALVLTPKGRTVFSRLWNDDFTATLPPPDAAGGGLPANHPLMAALSHPEGVRGLLQTPRGPLAVAARPILPSNEHGPPRGVLVFGRWLTHALSDHPPLPHLSPLRLWLAPAPGDAPENVRRLLAADGPDLEIDGIGEPTSLVTAGIRLVDLEGAPVAALTTTLAKTVEPQGESIIRLALVIAALGSLGVVAVGLVSNHLMIVAPLRRLESHITTLSRTGDLDTRLVLDRKDEIGLLARAFATMQGRIRHLAHYDPLTGLPNRTLFTMLGEGALARRRADRNGGGRRVGVAILDLDRLNTLTIGLGQGGSERALVAVGRRLAALAGPADVVARGGDGRFLVLLGDLAPAQAGSIVEREAAERLASAFAKPFTPDDLVGAPLSLTASIGLALFPQDGETLETLVTHAEVAVHQAKLLGRNNFQFFDDTLNRQAREILALESALYEALADNTLSLCFQPRIDAVRGHAIELKALARWDHPSRDLIVLEDVLPLIKQDGLLAEIDRWMSNAACRQIRQWRDQGVSFPPIAIALSARPLTAGDPGLAPIAEAIAANGVDPGDLAVEIAQSAIKGQFPETKAPETQAPEDRPAEELPWPDGLAGLGLGLVIDVADAGVVSPALLRRFPLTRLTIGAALVAKLPDCRESRALVRALIALADELDLECLAEGVERGDQADWLLAAGCRLQQGLFHARPQDQTVILRWLGQTPPRGLSSPGPRDRKQDGV
  protein production: failed

## MRYVLYVPDISCNHCKMRISKALEELGVKNYEVSVEEKKVVVETENLDSVLKKLEEIDYPVESYQEV
  protein production: not failed

## MESGIFGEGGSLPPLPVLLRGLQDLGLLGKLDIARRATLTGISLCFSVFLQHIGIMWIQVRTMDGKETHTVNSLSRLTKVQELRKKIEELFHVEPQLQRLFYRGKQMEDGHTLFDYDVRLNDTIQLLVRQSLALPLSTKERDSELSDSDSGYGVGHSESDKSSTHGEGTADGDDKTVWEDTDLGLYKVNEYVDVRDNIFGAWFEAQVVQVQKKALSEEEPCSSSAIMAPEDDIMYHIKYDDYPEHGVDIVKAKNVRARARTVIPWEDLEVGQVVMANYNVDYPRKRGFWYDVEICRKRQTRTARELYGNVMLLNDSQLNNCRIIFVDEVLKIELPNERSPLIGSPSRRKSGPSCQYCKDDENKPCRKCACHICGGREAPEKQVLCDECDMAFHLYCLQPPLTCVPPEPEWYCPSCRTDSSEVVQAGEKLKKSKKKAKMASATSSSRRDWGKGMACVGRTTECTIVPANHFGPIPGVPVGTMWRFRVQVSESGVHRPHVAGIHGRSNDGAYSLVLAGGYEDDVDNGNFFTYTGSGGRDLSGNKRTAGQSSDQKLTNNNRALALNCHSPINEKGAEAEDWRQGKPVRVVRNMKGGKHSKYAPAEGNRYDGIYKVVKYWPEKGKSGFIVWRYLLRRDDTEPEPWTREGKDRTRQLGLTMQYPEGYLEALANKEKNRKRPAKALEQGPSSSKIGKSKRKSTGPATTSPRVSKKSKLEPYTLPLQQANLIKEDKGNAKLWDDVLSSLQDGPYQIFLSKVKEAFQCICCQELVFRPVTTVCQHNVCKDCLDRSFRAQVFSCPACRYDLDHSSPTRVNQPLQTILNQLFPGYGSGR
  protein production: failed

## MSVPGPSSPDGALTRPPYCLEAGEPTPGLSDTSPDEGLIEDLTIEDKAVEQLAEGLLSHYLPDLQRSKQALQELTQNQVVLLDTLEQEISKFKECHSMLDINALFAEAKHYHAKLVNIRKEMLMLHEKTSKLKKRALKLQQKRQKEELEREQQREKEFEREKQLTARPAKRM
  protein production: failed

## MTEAGASIVVTVKNEGKNLRELLESIEKNDFTNFETVVVDDLSTDDTEDIVKSYRFTVYKRIACSRGEGRNIGVDLSRYGYILFTDGDAKVSEHWISGMVSALAAGNDAVIGNTLYTGKRRYMQERVKIFLEGIEVTAPSVNLAYRKDRFRQLGGFDPKFVTAEDIDLNIRAVKAGFRFATCDSCVVYAKVRENLASFLRQAYWNGYGRYQLEMKHPGITRNTRVRLGHNFFDFLHMVSGAAGYLSARISEGKQGRLEHHHHHH
  protein production: not failed

## MGQPQQPEGAGAEEAAAGTDSGTDTGTGAGAGAATGASATRPPLRVGMVGYAFMGAAHSQGWRTAGRVFDLPLNPVLAAICGRDADAVRLAADRHGWASTETDWRTLVERDDIDLVDICTPGDSHSEIALAALAAGKHVLCEKPLANTVEEAQAMTRAAEEAAARGQLAMVGFNYRRVPATALARRMVAEGRVGRLRHLRVTYLQDWLVDPKAPLTWRLRKELAGSGALGDLGAHIVDLAQYLSGERIAGVSALTETFVRERPLPAGAPRGLSAGSADGVTGQVTVDDAAVFTGRLTSGALVSFEATRYATGRKNALRIELNGERGSLAFDLERLNELSYHDGTEPGEHAGFRRILVTEPEHPYLEAWWPPGHGLGYEHTFVHQARDLVHAVAEGRGPEPSFADGLQVQRVLAAVEESAEKNSVYTPITP
  protein production: failed

## SAVDCPQHCDSSECKSSPRCERTVLDDCGCCRVCAAGRGETCYRTVSGMDGMKCGPGLRCQPSNGEDPFGEEFGICKDC
  protein production: failed

## VTVTDDYLANNVDYASGFKGPLPMPPSKHIAIVACMDARLDVYRMLGIKEGEAHVIRNAGCVVTDDVIRSLAISQRLLGTREIILLHHTDCGMLTFTDDDFKRAIQDETGIRPTWSPESYPDAVEDVRQSLRRIEVNPFVTKHTSLRGFVFDVATGKLNEVTP
  protein production: not failed

## MPQTKQPNFLFLMADQLTAFALRMYGNGVCRTPNLDRLAARSTRFANMYCNFPLCAPSRVAMLTGRLPSSVGVYDNASEFSAEVPTFLHHLALAGYSTILSGKMHFVGPEQHHGFQERLTTDIYPSDFGWTPDWREEIPIAPTGMNMRSVIEAGECRRSMQIDYDDDVVYRGVQKIYDLGRLHRDRPFFLAVSMTHPHNPYVSTREFLDLYRPEDIDMPAVPPIPFAQQDPHSQRLWYMFRQDEYDVSDAHVRAARHAYYAMVSYVDAQVGRMLDALQAMDLDESTVVVFTADHGDMLGERGLWYKWVHFDPAVRIPLLISAPGRTRPAVRHELASLVDIFPTMLELAGVSVPDDGASPPPDGRSLAQGLGVSQDEPTGVVYGEMNGEGAHAPCLAVRQGWWKLVVAEGDPPLLFNLQDDPHELRNLAGQPATRDIERQLTALVQARWDARRLHQDILHSQARRRLVQQSRLQGDFPAWDYQPFTDASRQYVRAGAQSSPALVKGKLRYPPVAPVAPQHPRPARSNLPE
  protein production: failed

## MQESVVRVDYDSLETCKNFKPSVGTELIVLEKDIAHARFKGNESMVYEENFVHAGFVLIACNYAALCALNKRHSVVVSNNINFYAPLELNQEALIKAQVIQDGVKKAEIKIEAFVLDIQVLEGMIEIVVFDKKPFKFNFKEELEHHHHHH
  protein production: failed

## MKGKLQHIHPLGMSIILGTLFARFATSMSIPFLAIYLTTVKGVSAGMTGAIIGTSALVGVFASFIGGNLSDRFGRKTIMLWSMIVWIFVFIGFSLADHVLSFFLLNALNGLCRSFFEPTSRALLSDLTKPEYRLLVYNLRYGAINVGVAIGPIVGLQIGSAKSTIPFLVAAGVYILYTAILAFQFKKYPMEKKKVSTEKPVTMLNAMRILRKDIVFLVALVGIILSNCGFSHLTTTVSQYFANAHIFEDGVKLFSYMLALNAIVVVIIQYPVIQMCKKYTPLTSIMVGTLFVSGGLFGFGIVESMLGAAVCTIIFTIGEVLMFSMTDVFIDDIAVAHLKGTYFGAMGFSGIGAVIGPWFGGVLLDYYGYQNGFAVFSALAIFSTVAFPVLLVTKGLSKKRYDRNSNIEMHAK
  protein production: failed

## MKLSILKNSMNSGKAVLFIVTGIIGLLIAIGTMLLFSFYPTEQNVSQSILYITFALWTVGWVLGPIIAGGDGILRSEYFVLLPFTSYKLARALLVVAFIGLGPIVSLIAFIGLFIYAARVSLSATIVAIPAIILQLIFVVLLSKVVVSIIGETLKSRIGMEVGAMLFGFIIAFLNVGWYVLPTINKMTLSDSTLLYMFPSSWAILAVEYAIQSNWLLVLVFLIVLTILCGLLFFIWATLLMKSTETKKIEGRITTNKHRKALRFFSETKIGATITKELKSWRRDPQRGRFLRMGIWIGVFYGILVTSANISYLMPWAGIIMIVFTSMFSCNIYGFDGSALWLTLTTPDAERIDVRGRQFAWLIAVGPIAILATIIFTISSGLTFIYPWVFTVIPALLGGAAGLIMLFSVFNVVPITDPHRRGRGSVISGDDMNASKMFITTWLMMVMVMATTIPALLVVWLGTLLHVQFLQWLGVLTGICTGMFFAWWFGRIAYLKIEKSGSELLFEMKNGMKTLRDDNKKKGNRKAVELPKKKLAIVVLLVFMGIFFLIHQSVVPLIFEIFSIDDKVRLFFLPRYVPHIVRIPIIILFAILGIASLYKAILIKKKHGKEHRFIKDEM
  protein production: failed

## MNQPSSLAADLRGAWHAQAQSHPLITLGLAASAAGVVLLLVAGIVNALTGENRVHVGYAVLGGTAGFAATALGALMALGLRAISARTQDAMLGFAAGMMLAASAFSLILPGLDAAGTIVGPGPAAAAVVALGLGLGVLLMLGLDYFTPHEHERTGHQGPEAARVNRVWLFVLTIILHNLPEGMAIGVSFATGDLRIGLPLTSAIAIQDVPEGLAVALALRAVGLPIGRAVLVAVASGLMEPLGALVGVGISSGFALAYPISMGLAAGAMIFVVSHEVIPETHRNGHETTATVGLMAGFALMMFLDTALG
  protein production: failed

## MIRSIVCTQRLIHRIMYTSARKYFIQFAIVAFVLGFIPTLYFIHAASQLETQAVSSVEKQTRLQLEFSQHDLLRMLESTHQATQLLAKNDLLFTAVTTPSKEALSQLKTLWDVTLRSQAIFSSFRLLDRQGKEQLKAIYDGHQVTFVESAQTTDPFSQQIVAQYAQLTTPQVWATQVAMSADTPSGMLPTFRFVTGIEHQGQRQGFLVVTVKLQSLYQRLSFIYDQFDSPDILNSAGELLLSEHKPSGTRSTSSLHFSAQHPELWQKIQLNQQGFALSNQTWFSYIKVDLSSVLPDFKPLVLVLRINKAEIDKTYANARWALMSQAVTVLSLLSIIAAGFAAWNINHLKNSLDSKLARAAMDGMSAVVITDRQNRIIKVNNEFTRLSGYTFEDVKGKQPSIFASGLHKVEFYMQMWKALQDNGVWEGEVINKRKDGESITEILRIQSIRDEDNVIQFYVASFVDISHRKALENRLRELSEKDALTDLWNRRKFDQTISLECAKRRRYPDQAQSCLAIIDIDHFKRINDKFGHNEGDLVLRTVAKGIQDQLRESDFIARIGGEEFAIIFPYTSIEEAEQVLNRVRLHIASLHHQQVTLSGGVTDVCTSPDQSYKRADLALYESKTSGRNQISVLTAMEMHHFA
  protein production: failed

## MTTPNRFVAGAIDLGEVKARAEARSQAQRAGQSSVTEVEPTVTITMDNVEEQLIKRSMQVPVVVLIGTPRSPDSEQLRAD
  protein production: failed
